Data on three substances can be found in PMC12115362.

For orientation: stoichiometry N means a count of units in the complex or per binding partner.

What all share (test): SEC; Agilent-1100, TSK G3000SWXL column; 0.2 M NaH2PO4, 0.1 M arginine, 1% IPA, pH 6.5; peaks integrated for approximate trimer percentage; N = 3
In general terms: SEC sorts molecules by how far they enter the pores of the column.

The target in test [1] is hMPV F pre-F design K362F_G366F (subtype A2, CAN97-83 ectodomain with foldon) (human metapneumovirus, subtype A2, strain CAN97-83 | T4).
Test [2] deals with hMPV F pre-F benchmark D185P (subtype A2, CAN97-83 ectodomain with foldon) (human metapneumovirus, subtype A2, strain CAN97-83 | T4).
Test [3] addresses hMPV F pre-F design N46V_T160F (subtype A2, CAN97-83 ectodomain with foldon) (human metapneumovirus, subtype A2, strain CAN97-83 | T4).

In test [1], “hMPV F pre-F design K362F_G366F (subtype A2, CAN97-83 ectodomain with foldon) (domain or fragment)” displayed a Trimer (%) of 76.9% and a stoichiometry N of 3.

In test [2], “hMPV F pre-F benchmark D185P (subtype A2, CAN97-83 ectodomain with foldon) (domain or fragment)” registered a Trimer (%) of 97.1% and a stoichiometry N of 3.

In test [3], “hMPV F pre-F design N46V_T160F (subtype A2, CAN97-83 ectodomain with foldon) (domain or fragment)” yielded a Trimer (%) of 94.7% and a stoichiometry N of 3.
